This passage reports Kd results from paper PMC3682517, “Engineering A-kinase Anchoring Protein (AKAP)-selective Regulatory Subunits of Protein Kinase A (PKA) through Structure-based Phage Selection*^([image sbox.jpg])” (The Journal of Biological Chemistry, 2013).

Test [1] has as its target T1, wild-type RII(1–45) D/D domain fragment (UniProt P13861 1-45, biotinylated when used as AlphaScreen tracer (site not stated)).
T1 construct: PKA regulatory subunit RIIα, residues 1-45, docking and dimerization (D/D) domain; His6 tag is PreScission-cleavable; also called WT RII; RII D/D domain; not shown: V5, C-terminal, kept
The test can be described thus: AlphaScreen or HTRF; competition binding: biotinylated R subunit D/D domain 0.3 nM (tracer), GST-AKAP RII-binding region 3 nM (target), increasing untagged R subunit D/D domain; IC50 approximates Kd; 20 mM HEPES pH 7.2, 100 mM NaCl, 0.1% BSA; 1 h at 4 °C; one-site competition fit. Conditions: both partners purified. For orientation: Alpha assays give light when donor and acceptor beads are brought close together.

Test [2] has as its target T2, R_(Select)AKAP18(1–45) D/D domain fragment (UniProt P13861 2-46, Val-3 in R_(Select)AKAP18 | Leu-5 in R_(Select)AKAP18 | Asp-10 in each …, biotinylated when used as AlphaScreen tracer (site not stated)).
T2 construct: PKA regulatory subunit RIIα, residues 1-45 (D/D domain), variant selected by phage display against AKAP18; changes at positions 3, 5, 10 and 14; not shown: V5, C-terminal, kept
Described as above. As to conditions: both partners purified.

Usually Kd stands for the free concentration of one partner at which half of the binding sites on the other are occupied at equilibrium, for simple one-to-one binding. Low values mean higher affinity, high ones lower affinity.

B1: GST-AKAP18 anchoring helix fragment (domain or fragment)
chain: NGGEPDDAELVRLSKRLVENAVLKAVQQYLEETQNKNKPGEGSSVKTEAADQNGNDNENNRK
Regarding B1, the Kd in test [1] was determined as 16.3 nM; in test [2], 162 nM.

B2: GST-AKAP2 anchoring helix fragment (domain or fragment)
chain: GDSPLVDDPLEYQAGLLVQNAIQQAIAEQVDKAVSKTSRDGAEQQGPEATVEEAEAAAFG
B2: in test [1], binding was put at a Kd of 12.5 ± 1.8 nM.
